Source: the domain aggregation screens of Martell et al. (2025)

Experiment: soluble fraction after stress (log2 fold change); higher = more stays soluble; pooled small domains, quantitative proteomics
Details: stress: 50 degC
Procedure, shortened: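 Custom libraries of small protein domains were pooled and measured in a high-throughput format, with quantitative proteomics as the read-out. Each library was stressed at 50°C. The value is the log2 fold change in the amount of each protein that stays soluble after stress, used as a measure of aggregation propensity; higher values mean more of the protein stays soluble.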

| Sequence | soluble fraction (log2) |
| --- | --- |
| HMNNILNYTIAELMEILKIDDLETENVINSSNNLINKSINENNFPLAEFYEDVKNNLIEFIETFDS | -0.632 |
| HMTTGGAEELGRTERKIVEQVGRGLSNREIAQVLGLSEGTVRNYLSTILGKLGLRDRTQLAIWSVQTGFAA | 0.197 |
| HMNSRTLAYSDFIRKVDKGEVSAVVIDGEQVQVQTKDGQTFVTIQPQSEQMNDKLVEQLIAKDISVKAERQ | 0.158 |
| HMLQADALADPVGWALRTLGFDLEAGTPERSAIQRSFRQSLIEAHPDHGGADDEAAQRIADITEARRILLA | -0.346 |
| HMEPREALDGLISERGETYASISRLLGRNSAYIQQFIKRGSPARLDQSDIALLALHFDVPVEMLGGKE | -0.42 |
| HMNKWMQLASEEDKKLFNEAPKEIQDSITESAKFFDIRTKADVDTFWANTGLRQMKQQAMLNESFVNEY | -0.0275 |
| HMGNASQAARRQRIVDAALELLQDRPYDQIQMRDVAEGAGVALGTLYRYFPSKEQLFAHVLVE | 0.027 |
| HMGNLPPAVINARIKVSPAGRGVFVGFDKGSTSTEAKYADAIRGYLPNIEFNKDDHESVVTVPFNFR | -0.032 |
| HMHKFMEQNQDRRLSRMKELIGILSEAAKTYYQESREIMSNFQYDRMYDELLELEKETGVVMAGSPTQKV | -6.44e-05 |
| HMSEYITEGWLREKFGLGWGTEVHLPLDSRLTPAAHQLLEERKIVIKYIDAEGRVFNPDKSGEEAPVQ | 0.0587 |
| HMNKNNLRNVSSKIRKSRRVLNLSQAELSKKLDISPSYLNLIESGKRPITVPLLIKLGNILGISLKDL | -1.27 |
| HMKYGPSTVATLKVARLGEMGAFLDAETGDTSDDILLHKTQQTAPVKVGDEVEVFLYLDPKRRLTASMRV | -0.107 |
| HMPFDRTVQLAGARARQLQALPRYREVLRLLDEGMNPREIGQVLDPPVTRQRASALIQQAKRAQMLGLFED | -0.857 |
| HMGSKKAIPYVSGMSETEAQNELEEAGFKVTSSFQYDDSVESGKVISTTPEAGTKAEKGSTVTMLVSQGSN | -0.114 |
| HMSSESIKTDKNVGVGSTLEELEKAYGSDYTLSGKMYRYYQDDNSKYMYFFILNDVVQYYGYGIDV | -1.53 |
| HMKAETILAIPENQPERLFPNNEDEARKIYRDLAREWHTDRNKSPKAQDVFSHLSKLYDIVIDRIKNKTWT | 0.152 |
| HMNPHIQFWSLLRRQPDYNSAYKDELKAMFVWQWSGEKTESLNEFYKTDPYRYKSMLMDMRNRAL | -3.15 |
| HMDDPQAELLARAVRRVALAAAERTRRNEYGGVYLGLFRQFGISSYRRTPPARLHEALEWLERWRGDLM | -0.0675 |
| HMNRKILVLLAGKEQITDNVSVMQSIHRYAFINTATINKAQHEILIEKEEIRQEALTLIHEFLK | -0.0593 |
| HMKGLDRATNKALLLKHIIDNGSTGTRFSELRQVLPSLTRGSISSLLIELRSEGKIHSIGVTRNARWYPTE | -1.07 |
| HMVSDAWITGKVKSQLLADDVTPGMKIDVDTEDRIVSLKGTVPSLTARNEAIRIASHTKGVRTVDADELIV | 0.118 |
| HMAFRIGGFVQEGSVVRQQDGGTVRFEVTDTAHSVPVTYKGSLPDLFKEGKGVVAQGKLMNGTFVADQVLA | -0.0129 |
| HMSSWAEGLTERERHTLMWITKGLSNKLIARELGISDSTVKVYVKNLLRKLNVNSRLELAAWVHTHPL | -0.906 |
| HMARAESYGDIARLEQLLDEHANIAALDPGKLPAVRQQIWTLMRAARMDHDLGLAERPEDDSFDDMLLHV | 0.133 |
| HMAITLEVAKKHLEMWLEAESEVAINQSYTIGGKSFTRANLAEIRKQIEYWSNKVAELENLA | 0.0438 |

| Sequence | soluble fraction (log2) |
| --- | --- |
| HMRKIGDVLRLHAGGLSKRRIAVSLNIGRTAVGDYISRARRAGLGWPLPEDLSEEALERLLFPPP | -2.59 |
| HMTARYQQVEDYIVRRIQDGSWPPGHRLPSEHELVQQFGMSRMTVNRALRDLMQKGRIVRVAGVGSFVAQD | -1.41 |
| HMDYVKTLGETINVRVAASTDADIYKLLPGGEILNRVGYNEEWTKVMVDGSTFYVYSEYVIQTEPPA | -1.37 |
| HMDDADPYEILGVERDAEDAEIKRAYHDLIRENHPDRLMAEGLPQEMIDVANEKVAFINDAYDRIEKLRGM | -0.241 |
| HMRSPLYVQIKQHILGDIRKGVWKPGEKLPTELDLAERFGVSVGTVRRAMGGLEDEGIISRREGSGTFVRT | 0.0686 |
| HMEVKSGFVHLTGAVKSPGVYPISIGMRLFEVIALAGGFTAKADRESVNLARTVTDGEQIIVSGSG | -1.7 |
| HMKFNEKQNEVRIAIMNFIIDNKRPFHMKQDGYDALEGITLSGRHEFQDILDVLHSRDGFSADEEGNINF | -1.51 |
| HMGRRERKKLQSRRAIIEAAVTEFKEKGFREASVADIMTRADLGLGTFYNYFQSKEDILMSLLS | -0.0676 |
| HMELSESLENYLVVIYEAHLRNEIARIKDMTASLSVKHTSAIDAIKKLEDLGIVNYEKRGFVKLTQSGIEK | 0.0501 |
| HMEINEDEIYEKIMIEIEQDNKVKSTWAKALSQSDGNKDKAESLYISMRFEELKYHQSYQKEELNLKDNQQ | 0.0911 |
| HMARRSRADAVRNREALIDAAKAAFTEAGPDVSLEEIARRAGVGIGTLYRHFPTRDAVIEAVYR | 0.0559 |
| HMANSDEEVLNKISTKAPTFNELINKIKEFDDTKEINDIWLDVYRYYITDEEYKEIAKKVITGLTYTNQ | -0.177 |
| HMALSSQQIKDMQSWYGTKADGIWGSKSTTAAGGRDAGAAYSLYSSNKGRYSSYTDYMSYGGG | 0.072 |
| HMNVGKYILTLAAKEGYSQSDVARRTGISRQMLSYIIAGERKLTLPQALKIESLLSLKTGTLILMQDED | -3.41 |
| HMADEGFRQTVLAVLARWESKIHHGQYNALKAKVMNGNWSSFVKQVVKFQGKFIHPDAAKELLGLFG | -0.0749 |
| HMSYLDTLPGRRVAAQGAITGDAGTLAVDGDTWSARVEPGAPDVAPGDEVTVLRIDGATLVVRPLP | -0.0478 |
| HMKLHQDLQIKVIDAANNKVEFIDTATGTSLATRTLDVNGVSKARGFEATLYGVVEDNDVFHIA | 0.158 |
| HMREQAHEVAGKLGYPVMVKASAGGGGKGIRIVRTEDELDQAFEAAQSETKAAFGDDQMYMEKVI | 0.00859 |
| HMDVLTARENEVLQLLAKGMSNKEIASVLVITEKTVKAHVSSILSKLNLSDRTQAALYAVKNGI | -0.151 |
| HMRELPKRPEIRYAAGDRVFHKAFGNGLVKQVAQTAGGARVTVDFGEGKGVKTFAGDAPMIKI | 0.342 |
| HMTANTLDLTYSQFLENVKNGSVNDVTIRGNNVSGNFSDGRKFKTYAVNDPTLVEKLTKMGVNISAAPL | 0.267 |
| HMSHPNAPLTPEGRRRLAVLIVEDGWTIRRAAERFQVSPATASKWARRYRAGESLTDRSSRP | -1.58 |
| HMSSRSLSYSDFIERVDAGQVSKVVMDGERLVVVGQDGTSYVTIKPPGDQVTENLSRELISKGVEVEAEPQ | 0.0107 |
| HMIAVLEEGSRFRAINDISGKPFGPEMIIKNGQVIAAGKKILTKPKKLIGKKEGTKFNISGKEYVIKDI | -0.614 |
| HMNDLIKMPYLVGQLYDDVASNQEYADFQFKITEGNDPDKQPGEIMKQDPAADIMVKKNAEVELLVNG | 0.247 |

| Sequence | soluble fraction (log2) |
| --- | --- |
| HMGVSDDMARGVVRARQFLSDFAAVPLDRMTPAEAVARARQLKSELETDAKHSPWLLDVLSNA | -0.0848 |
| HMNILNFSENIIKLRHKKGITQEELADFVGVTKASVSKWETKQSLPDIMLLPRLAAYFDVTVDELLGYEP | 0.0236 |
| HMETKPTELMLEVHELRIGMFVHLDLGWMDHPFPLNRFKISTNSQIEQIKGLRLKQVKVMTALSDPTALS | -2.21 |
| HMGIKYTNQRVEILNFLKDNLSHPTVDDVYEGVKKKLTRISKATVYQNLKFLASKGLIQEVNIKGVSRFEP | -1.32 |
| HMAMSDFDALSNRISTLSQGRASAVRMKDGIVSLVLDIGGLSAEERKAMTAAIEGEGRGYPSVTQVRILET | 0.0462 |
| HMSDKNVYGKYKNVFLSDEEFSELKQFYPNDWSDRIETLSEGIELKGYKYKNYLLAIKKWAEYEGQKAD | -0.0354 |
| HMKREELTQQTKQNLREAFWSLYIQKPIEKITVKEITDIAGYNRGTFYLYYKDTYDLLAKIE | -0.149 |
| HMPGLQSVTPAELKIGMYVILPLAWDEHPFLKNHFLIQSEAQINKIRELGTKGIQIDLSKSHP | -0.904 |
| HMGSALLEAGADDAGQRLDQWLAAKLGPSISRSRVQALIKQGAVLVGGKPAGEAKRKLVAGDVVSVALPEP | 0.0853 |
| HMSGILINGELYKPGEQMSLKQRLSIQARIQMQGEDTVKPEMLKDFYNSGGPLSKEESSEYMKSQN | -0.153 |
| HMKEETYHYTVRYVTDGGDILASYEGKATKDSVFFPEVKTFDGYTAVRGEEPMFHLVSDHAVFQIVYQKNG | -0.147 |
| HMTSTSVKYVNSSSGLNVRKGPSTSYDKVTTLVNGTKVTVISTNNGWSKITSGSITGYVSSQYLSSSS | -0.147 |
| HMSEGEMSQWIIAQAKQQGGGFQPDAARLLGSYVGNNTLRARQEIDKLLTYVGPSRVVTPEDVVLLTA | -0.0143 |
| HMLGKEVVRAYNISYAIDDKGSLQGDLTAALTGLIPLSKPPVLDQRNRSLYVTATPEQHKDVAALLAKL | -0.171 |
| HMQLHDTMKRVYEALDISEQKLAESLGLKLSTIINWQKNGISKIGINKLNQTFGLDMQWILTGQGEPFI | 0.116 |
| HMPAEEVPLYKAVVVTTPPNRLRVRFSPAGDFKRWLQSGEEVDVYQELGDWRRIEPNGWSSAEWLQRVG | -0.157 |
| HMNNFTQSALDTIDGIGKRRKKLLLNHFGSVKLIENASIEDIKKIDGISDLVANKIYNFFNKN | -0.652 |
| HMEWTDIPTHKVPNVVGKSVEEAKKKLSKFTIEYSGTGEKVVAQSPDAGEKLEEGGTVRLLL | 0.203 |
| HMDLDLNIDNYNFDDLLNLFGLKMKFSEDDLKKAKRSVLMTHPDKSGLDKQYFMFFTKAYKMLSQIYYFR | 0.42 |
| HMTYKHLTIDEMKRFLSTREDSQSALVQFARVENVVGNRKGKYAVIKKWFLKNYKEEYNAFLS | -0.17 |
| HMTQEMPAEVKKKADAFNNAMDEENYTEAKAILAELEQNTAPSYPLLLQMQTRYAFETASWE | -0.00382 |
| HMESVQWSVFPSAKYVTIISFDPTTSGGSATAKFKVSDEARSKGFRFRIEAAIGEGIMRSEMYVIEE | 0.0612 |
| HMKRLPMRKIRDVLRLSADGLSTRKIGVSLTIGRTTVQAYLDRAAEVDLSWPLPPEMSDTDLERLIYPR | -3.39 |
| HMSIAKIIGDRIRAYRNQKGWSQEYLAEKADVHHTYIGQLERGEKNATIESISKIAGALGVSLSRLFEN | -0.0998 |
| HMATAADLLQSATGVPRSDALLLLAKLLGVAKERLIAHPETVVSEKTQATFSDWIERVRGGFPTTYLLG | -0.0115 |
